# Test results taken from the RNAGym collection of RNA variant scans (doi:10.1093/molbev/msab373).
# B1: Azoarcus group I ribozyme (parent)
# chain: GUGCCUUGCGCCGGGAAACCACGCAAGGGAUGGUGUCAAAUUCGGCGAAACCUAAGCGCCCGCCCGGGCGUAUGGCAACGCCGAGCCAAGCUUCGGCGCCUGCGCCGAUGAAGGUGUAGAGACUAGACGGCACCCACCUAAGGCAAACGCUAUGGUGAAGGCAUAGUCCAGGGAGUGGCGAAAGUCACACAAACCGG
# Variants of: B1
# Experiment: reverse-splicing fitness (ratio to wild type); higher = more active; in vitro selection; Mg2+ level not given
# In short: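 An in vitro group I ribozyme library with randomized positions was T7-transcribed and gel-purified. In triplicate, 10 pmol RNA in EPPS pH 7.5 was reacted with 50 pmoles of a 30-nt RNA substrate for 1 h at 37 °C across several added MgCl2 levels (1–48 mM), then stopped with EDTA. Products were reverse transcribed from a substrate-complementary primer, PCR-amplified and sequenced (HiSeq 4000). Fitness is a variant's read proportion after selection over that before, normalised to wild type.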
row,Variant,reverse-splicing fitness
1,A145U C150U U176A,0.908
2,A145U C150U U176C,0.816
3,A145U C150U U176G,0.342
4,C150U C169A U176G,0.00623
5,C150U C169A U176C,0.0431
6,C150U C169A U176A,0.0259
7,A145U,0.946
8,A145G C169G,0.302
9,A145G C169U,0.369
10,A145G C169A,0.172
11,A145U U176G,0.462
12,A145U U176A,0.937
13,A145U U176C,0.911
14,A145U C150A C169A U176G,0.00528
15,A145U C150A C169A U176C,0.0139
16,A145U C150A C169A U176A,0.014
17,A145U C150A C169U U176A,0.031
18,A145U C150A C169U U176G,0.00699
19,A145U C150A C169U U176C,0.0345
20,C150G,0.42
21,C150A,0.484
22,C150U,0.878
23,A145U C150G C169U,0.0635
24,A145U C150G C169G,0.0415

row,Variant,reverse-splicing fitness
1,A145U C150G C169A,0.0224
2,A145U C150A C169A,0.0212
3,A145U C150A C169G,0.0369
4,A145U C150A C169U,0.0521
5,A145U C150G,0.512
6,A145U C150U,0.943
7,A145U C150A,0.465
8,A145G U176G,0.325
9,A145G U176C,0.91
10,A145G U176A,0.863
11,A145U C150U C169A,0.106
12,A145U C150U C169G,0.215
13,A145U C150U C169U,0.312
14,A145U C150G C169U U176C,0.0406
15,A145U C150G C169U U176A,0.0182
16,A145U C150G C169U U176G,0.00591
17,C150U U176G,0.306
18,C150U U176A,0.814
19,C150U U176C,0.869
20,C150A C169A U176A,0.0214
21,C150A C169A U176G,0.00665
22,C150A C169A U176C,0.0227
23,A145U C150G U176A,0.326
24,A145U C150G U176G,0.108

row,Variant,reverse-splicing fitness
1,A145U C150G U176C,0.351
2,A145G C169U U176G,0.0104
3,A145G C169U U176A,0.123
4,A145G C169U U176C,0.174
5,C150G C169G U176A,0.00867
6,C150G C169G U176G,0.0051
7,C150G C169G U176C,0.0077
8,C150G U176C,0.286
9,C150G U176G,0.0576
10,C150G U176A,0.219
11,C150U C169U U176G,0.0109
12,C150U C169U U176A,0.0877
13,C150U C169U U176C,0.128
14,A145U C169G U176A,0.0717
15,A145U C169G U176G,0.00761
16,A145U C169G U176C,0.133
17,C169U U176G,0.0131
18,C169U U176C,0.182
19,C169U U176A,0.114
20,A145U C150G C169A U176C,0.0151
21,A145U C150G C169A U176G,0.00602
22,A145U C150G C169A U176A,0.0122
23,A145U C169A U176G,0.00543
24,A145U C169A U176A,0.0255

row,Variant,reverse-splicing fitness
1,A145U C169A U176C,0.0523
2,C150A C169G U176A,0.026
3,C150A C169G U176C,0.0327
4,C150A C169G U176G,0.00565
5,A145U C169U U176C,0.149
6,A145U C169U U176G,0.013
7,A145U C169U U176A,0.109
8,C169G U176G,0.00806
9,C169G U176C,0.137
10,C169G U176A,0.0721
11,C150G C169A U176G,0.00618
12,C150G C169A U176C,0.0144
13,C150G C169A U176A,0.0121
14,A145U C169G,0.3
15,A145U C169A,0.173
16,A145U C169U,0.407
17,C150U C169G,0.172
18,C150U C169U,0.247
19,C150U C169A,0.0973
20,A145U C150U C169A U176G,0.00551
21,A145U C150U C169A U176A,0.0236
22,A145U C150U C169A U176C,0.04
23,C150A C169U U176G,0.00737
24,C150A C169U U176A,0.0369

row,Variant,reverse-splicing fitness
1,C150A C169U U176C,0.0421
2,A145U C150G C169G U176G,0.00509
3,A145U C150G C169G U176C,0.00868
4,A145U C150G C169G U176A,0.0118
5,C150G C169U U176A,0.0131
6,C150G C169U U176G,0.00596
7,C150G C169U U176C,0.0326
8,A145U C150U C169U U176A,0.0998
9,A145U C150U C169U U176C,0.141
10,A145U C150U C169U U176G,0.0111
11,C150A U176A,0.406
12,C150A U176G,0.185
13,C150A U176C,0.398
14,C169A U176G,0.0054
15,C169A U176C,0.0638
16,C169A U176A,0.0336
17,A145G C150U U176G,0.308
18,A145G C150U U176C,0.821
19,C150G C169A,0.02
20,C150G C169U,0.0492
21,C150G C169G,0.0309
22,U176A,0.87
23,U176C,0.815
24,U176G,0.348

row,Variant,reverse-splicing fitness
1,A145U C150U C169G U176C,0.0907
2,A145U C150U C169G U176G,0.008
3,A145U C150U C169G U176A,0.0606
4,C150A C169A,0.0251
5,C150A C169U,0.061
6,C150A C169G,0.0379
7,A145G C169G U176C,0.14
8,A145G C169G U176G,0.00802
9,A145G C169G U176A,0.0818
10,A145U C150A C169G U176C,0.0285
11,A145U C150A C169G U176G,0.00588
12,A145U C150A C169G U176A,0.0176
13,A145U C150A U176A,0.4
14,A145U C150A U176C,0.363
15,A145U C150A U176G,0.177
16,A145G C169A U176A,0.0412
17,A145G C169A U176G,0.00541
18,A145G C169A U176C,0.0662
19,C150U C169G U176G,0.0074
20,C150U C169G U176C,0.0925
21,C150U C169G U176A,0.0516
22,C169U,0.407
23,C169A,0.18
24,C169G,0.323
